Assay results: patent US20240368281A1 (INNATE PHARMA, published 2024)

Tests used:
[1] = target: T1, CD94/NKG2A on the cell surface (human, UniProt Q13241 1-179); experiment: flow cytometry (MESF), titration in human whole blood, gated on NKG2A+ lymphocytes
T1 construct: whole, on cells; also called Ba/F3-CD94/NKG2A; NKG2A+ cells
Excerpt: The affinity and total number of receptors may impact both pharmacokinetics (PK) and pharmacodynamics (PD) of the mAb in humans. […] Human whole blood was collected from each donor and processed immediately.

[2] = target: T1, CD94/NKG2A on the cell surface; experiment: cell-based or functional assay
T1 sequence (chain, as listed by the source limits assumed, chain 1 of 2): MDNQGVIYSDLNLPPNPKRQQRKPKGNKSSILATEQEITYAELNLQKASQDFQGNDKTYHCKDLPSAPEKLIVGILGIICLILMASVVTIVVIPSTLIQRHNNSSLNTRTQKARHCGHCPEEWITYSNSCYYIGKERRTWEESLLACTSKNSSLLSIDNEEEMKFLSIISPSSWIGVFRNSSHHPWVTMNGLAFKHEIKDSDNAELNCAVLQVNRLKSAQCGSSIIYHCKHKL
T1 sequence (Q13241 whole entry, chain 2 of 2, the tested form may be a part): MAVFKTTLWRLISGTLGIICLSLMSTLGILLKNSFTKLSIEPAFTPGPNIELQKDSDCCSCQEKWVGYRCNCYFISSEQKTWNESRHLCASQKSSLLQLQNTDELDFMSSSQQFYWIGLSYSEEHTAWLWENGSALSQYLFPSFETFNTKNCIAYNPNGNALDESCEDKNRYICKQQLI

[3] = target: T2, single-chain NKG2A-CD94-mFc construct (human, UniProt Q13241 32-179, limits assumed); experiment: SPR, Biacore T100; antigen amine-coupled to a CM5 chip, antibody injected at 0.157-2.5 nM
T2 construct: The order here follows the printed name only; also called recombinant NKG2A; not shown: mouse Fc (mFc)
T2 sequence (Q13241 other isoform, or with tags, fused parts or gaps limits assumed): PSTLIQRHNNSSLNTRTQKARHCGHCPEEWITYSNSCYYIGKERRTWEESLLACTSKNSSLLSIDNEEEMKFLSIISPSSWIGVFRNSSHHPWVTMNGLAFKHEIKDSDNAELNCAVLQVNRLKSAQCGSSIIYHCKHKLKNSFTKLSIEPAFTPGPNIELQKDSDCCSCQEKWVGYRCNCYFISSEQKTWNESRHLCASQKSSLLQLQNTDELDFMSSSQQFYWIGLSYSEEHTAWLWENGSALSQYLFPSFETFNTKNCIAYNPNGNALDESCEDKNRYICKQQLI
Protocol: Heavy chain frameworks included “VH1” based on VH1_18/JH6; “VH5” based on VH5_a; “VH6” based on VH5_51; “VH7” based on VH1_f; and “VH8” based on VH1_46, all with a JH6 J-segment. The antigen-binding properties were analyzed on a Biacore T100 (Biacore AB, Uppsala, Sweden). The antigen was in the form of a single-chain NKG2A-CD94-mFc construct was covalently immobilized on the sensor CM5 chip (Biacore AB, Uppsala, Sweden) via amine groups using 1-ethyl-3-(3-dimethylaminopropyl) carbodiimide hydrochloride (EDC) and N-hydroxysuccinimide (NHS). The immobilization level was targeted at 300 RU. Z270 antibody variants were diluted to a concentration series (0.157, 0.313, 0.625, 1.25, 2.5 nM) in the running buffer HBS-EP (10 mM HEPES pH 7.4, 150 mM NaCl, 3 mM EDTA, 0.005% (v/v) Tween-20). All the samples were then injected over the immobilized antigen for 2 min at the flow rate of 40 ul/min. Subsequently, the running buffer was injected for 3 min at 40 ul/min for antibody dissociation analysis. After each run, the regeneration buffer (10 mM NaOH, 500 mM NaCl) was injected (30 seconds, 10 ul/min) to completely strip the remaining antibodies off the antigen. Data were evaluated with Biacore T100 evaluation software.

[4] = target: T1, CD94/NKG2A on the cell surface; experiment: flow cytometry, titration on purified human NK cells; four-parameter fit, median of 5 donors
Protocol: Purified NK cells were prepared from frozen PBMC: Human NK purification with Stem Sep system, and cultured O/N in complete medium supplemented with 10 IU/ml recombinant IL-2. PBMC were prepared from collected blood. Blood was qualified for transfusion, donors were thus anonymous and supposedly healthy. PBMC were prepared, aliquoted and stored in nitrogen tanks prior to the study.
Calculations of Kd for receptor saturation and EC₅₀ for CD107 mobilization were performed in GraphPad Prism software using a non-linear regression fit with four parameters.

T1 sequence (chain, as listed by the source limits assumed, chain 1 of 2): as the sequence (chain, as listed by the source limits assumed, chain 1 of 2) above
T1 sequence (Q13241 whole entry, chain 2 of 2): as the sequence (Q13241 whole entry, chain 2 of 2, the tested form may be a part) above

B1: humZ270VL1/VH1 (antibody, human IgG4 S228P, kappa, V domains shown)
VH: QVQLVQSGAEVKKPGASVKVSCKASGYTFTSYWMNWVRQAPGQGLEWMGRIDPYDSETHYAQKLQGRVTMTTDTSTSTAYMELRSLRSDDTAVYYCARGGYDFDVGTLYWFFDVWGQGTTVTVSS
VL: DIQMTQSPSSLSASVGDRVTITCRASENIYSYLAWYQQKPGKAPKLLIYNAKTLAEGVPSRFSGSGSGTDFTLTISSLQPEDFATYYCQHHYGTPRTFGGGTKVEIKR
notes: also called humanized Z270 VH1; humZ270 VH1
In the case of B1, the EC50 [1] is reported as about 4 ng/mL, the “KD for full receptor occupancy (the EC100)” value [1] is reported as about 100 ng/mL and the Kd [1] is reported as about 4 ng/mL. The “EC50 concentration in the CD107 mobilization assay (purified NK cells against autologous SEB blasts)” value [2] was about 400 ng/ml, the “EC50 for CD107 mobilization on K562-HLA-E transfectants” value [2] was 4.1 µg/mL and the “median EC50 for CD107 mobilization (autologous SEB blasts)” value [2] was 0.4 µg/ml. The Kd [3] was 0.0665 nM, the koff [3] was 0.000498 s⁻¹ and the kon [3] was 7.49e+06 M⁻¹ s⁻¹. The Kd [4] was 5 ng/mL.
